Reference: article PMC2132604

Molecular target: p130^Cas, endogenous in CHO cells (Chinese hamster (endogenous in CHO))
Test: co-IP

FAK P712/715A double point mutant, epitope-tagged, expressed from pCDM8-P712/715A in CHO cells (from UniProt Q00944 1-1053) (enzyme)
reduction of association relative to wild-type FAK (densitometry): 50%
